# Residue numbers refer to the chain shown, from its start.
# B1: RF16-214 (antibody, V domains shown)
# VH: EVQLLESGGGLVQPGGSLRLSCAASGFTFSWYQMMWVRQAPGKGLEWVSRIYPSGGGTAYADSVKGRFTISRDNSKNTLYLQMNSLRAEDTAVYYCARDAGYGDNWGQGTLVTVSS
# VL: QSALTQPPSVSVSPGQTASITCSGDKLGEKYASWYQQKAGQSPVMVIYQDRKRPSGIPERFSGSNSGNTATLTISGTQAMDEADYYCQAWDTRAVVFGGGTKLTVLG
# How the values were obtained:
# Assay in all cases: SPR, mAb captured, C2 mutant analyte;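 also: Anti-C2 mAbs captured on goat anti-human IgG Biacore CM5 chips, alanine or serine C2 surface mutants flowed over at 37 °C, double-referenced sensorgrams fitted to a 1:1 binding model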
# human C2 F437A = biological target: T1, human C2 F437A (human, UniProt P06681 21-752)
# T1 sequence: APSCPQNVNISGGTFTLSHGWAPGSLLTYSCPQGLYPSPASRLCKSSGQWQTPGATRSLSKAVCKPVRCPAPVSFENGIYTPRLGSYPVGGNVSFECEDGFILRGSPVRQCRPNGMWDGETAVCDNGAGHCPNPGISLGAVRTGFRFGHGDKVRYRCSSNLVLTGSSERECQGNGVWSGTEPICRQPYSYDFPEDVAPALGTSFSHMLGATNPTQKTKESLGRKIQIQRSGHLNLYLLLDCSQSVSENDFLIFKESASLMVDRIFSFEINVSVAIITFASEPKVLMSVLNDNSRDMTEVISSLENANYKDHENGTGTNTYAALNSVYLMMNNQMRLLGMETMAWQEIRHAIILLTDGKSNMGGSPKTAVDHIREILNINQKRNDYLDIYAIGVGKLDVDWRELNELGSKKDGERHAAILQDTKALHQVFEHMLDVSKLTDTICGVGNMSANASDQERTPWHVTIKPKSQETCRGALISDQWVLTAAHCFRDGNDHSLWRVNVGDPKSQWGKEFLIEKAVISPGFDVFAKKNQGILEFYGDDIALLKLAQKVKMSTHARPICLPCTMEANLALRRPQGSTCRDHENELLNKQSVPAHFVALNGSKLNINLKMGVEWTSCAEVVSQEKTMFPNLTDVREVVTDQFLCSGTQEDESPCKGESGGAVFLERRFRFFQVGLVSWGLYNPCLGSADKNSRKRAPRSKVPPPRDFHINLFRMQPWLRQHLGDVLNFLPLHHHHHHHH
# human C2 A436S = biological target: T2, human C2 A436S (human, UniProt P06681 21-752)
# T2 sequence: T1 sequence with A416S, A417F
# human C2 N327A = biological target: T3, human C2 N327A (human, UniProt P06681 21-752)
# T3 sequence: T1 sequence with N307A, A417F
# human C2 S456A = biological target: T4, human C2 S456A (human, UniProt P06681 21-752)
# T4 sequence: T1 sequence with A417F, S436A
binder,measurement,setting,value
B1,Kd,human C2 F437A,381 nM
same,Kd,human C2 A436S,31.2 nM
same,Kd,human C2 N327A,205 nM
same,Kd,human C2 S456A,157 nM

# Source: patent US20220332804A1 (CSL INNOVATION, published 2022)
